Experimental data from patent publication US11618906B2, “Hydroxylation techniques” (HYPHA DISCOVERY LTD., priority 2018, dated 2023).

Tests used:
Type in all cases: biochemical
[1] = Metabolism of 4-pyrrolidylacetophenone by P450 aluC09 and mutants; conditions: percent of substrate being converted; 0.125 mg/ml, 27° C., 16-20 hours; [CYP] per enzyme as in Table 8
Summary of the method: (§1)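 Mutant P450s were combined with redox partners and substrate (0.125 mg/ml) in pH 7.4 phosphate buffer with 5 mM MgCl2 and cofactor recycling (1 mM NADP, 5 mM G6P, 2 UN/ml G6PDH). Mixtures were shaken at 27° C for 16-20 hours, extracted with equal-volume acetonitrile and centrifuged. Products were quantified as conversion by UPLC-MS.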

[2] = Hydroxylation of diclofenac catalysed by cytochrome P450 aluC09 and mutants (UPLC-PDA-MS); conditions: for 4′,5-dihydroxy-diclofenac 1.38 mins / 4′-hydroxy-diclofenac (1) 1.62 mins / 5-hydroxy-diclofenac (2) 1.58 mins / Diclofenac (Substrate) 1.81 mins: % by UV peak area at 275 nm, 0.125 mg/ml substrate, 27° C., 16-20 hours; for Hydroxylated Ratio hydroxy 1:hydroxy 2: diclofenac, ratio of UV peak areas at 275nm
Summary of the method: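 Lyophilised CYP450aluC09 or mutants, with ferredoxin aluF03 and reductase SCF15A, incubated 16-20 hours at 27° C with 0.125 mg/ml diclofenac in 50 mM potassium phosphate pH 7.4, 5 mM MgCl2, and G6P/NADP/G6PDH regeneration. Acetonitrile-extracted; conversion by UPLC-PDA-MS against authentic hydroxylated standards.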

[3] = Hydroxylation / de-N-ethylation of napropamide catalysed by cytochrome P450 aluC09 and mutants; conditions: for Desethyl Napropamide (1.62 min) / Desethyl-hydroxy-Napropamide (1.41 min) / Hydroxy-Napropamide (1) (1.53 min) / Hydroxy-Napropamide (2), (1.52 min) / M-2Da (unidentified) (1.89 min) / Napropamide (substrate): % by UV peak area at 275 nm, 0.125 mg/ml substrate, 27° C., 16-20 hours; for Hydroxylated Ratio 2:1: napropamide, ratio of UV peak areas
Summary of the method: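 Conversion of napropamide (0.125 mg/ml) to hydroxylated and de-ethylated metabolites was measured by UPLC-MS after acetonitrile extraction. Reactions ran 16-20 h at 27° C in pH 7.4 potassium phosphate (50 mM) with 5 mM MgCl2, 1 mM NADP, 5 mM G6P and 2 UN/ml G6PDH. Enzymes were lyophilised P450 aluC09 variants, ferredoxin aluF03 and ferredoxin reductase SCF15A.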

[4] = Metabolism of tofacitinib by P450 aluC09 and mutants; conditions: percent of substrate being converted; 0.125 mg/ml, 27° C., 16-20 hours; [CYP] per enzyme as in Table 8
Summary of the method: as §1

[5] = Metabolism of epothilone B by P450 aluC09 and mutants; conditions: percent of substrate being converted; 0.125 mg/ml, 27° C., 16-20 hours; [CYP] per enzyme as in Table 8
Summary of the method: as §1

[6] = Metabolism of tivantinib by P450 aluC09 and mutants; conditions: percent of substrate being converted; 0.125 mg/ml, 27° C., 16-20 hours; [CYP] per enzyme as in Table 8
Summary of the method: as §1

[7] = Metabolism of BIRB796 by P450 aluC09 and mutants; conditions: percent of substrate being converted; 0.125 mg/ml, 27° C., 16-20 hours; [CYP] per enzyme as in Table 8
Summary of the method: as §1

[8] = O-demethylation of indomethacin catalysed by cytochrome P450 aluC09 and mutants; conditions: % by UV peak area at 275 nm; 0.125 mg/ml substrate, 27° C., 16-20 hours
Summary of the method: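 Lyophilised CYP450aluC09 mutants with ferredoxin aluF03 and reductase SCF15A, 0.125 mg/ml substrate, 50 mM potassium phosphate pH 7.4, 5 mM MgCl2, G6P/G6PDH/NADP recycling. Shaken 16-20 h at 27° C. Acetonitrile-quenched, conversion measured by UPLC-MS.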

[9] = Hydroxylation of flufenamic acid catalysed by cytochrome P450 aluC09 and mutants; conditions: for Flufenamic Acid (Substrate) 1.93 mins / Hydroxy-Flufenamic Acid (1) 1.69 mins / Hydroxy-Flufenamic Acid (2) 1.65 mins: % by UV peak area at 275 nm, 0.125 mg/ml substrate, 27° C., 16-20 hours; for Hydroxylated Ratio 1:2: flufenamic acid, ratio of UV peak areas at 275 nm
Summary of the method: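 Lyophilised CYP450aluC09 mutants with ferredoxin aluF03 and reductase SCF15A, in 50 mM potassium phosphate pH 7.4, 5 mM MgCl2, 0.125 mg/ml flufenamic acid, G6P/NADP/G6PDH NADPH regeneration. Shaken 16-20 h at 27° C; acetonitrile-quenched, conversion to two hydroxy products by UPLC-MS.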

[10] = Metabolism of ruxolitinib by P450 aluC09 and mutants; conditions: percent of substrate being converted; 0.125 mg/ml, 27° C., 16-20 hours; [CYP] per enzyme as in Table 8
Summary of the method: as §1

[11] = Metabolism of celecoxib by P450 aluC09 and mutants; conditions: percent of substrate being converted; 0.125 mg/ml, 27° C., 16-20 hours; [CYP] per enzyme as in Table 8
Summary of the method: as §1

[12] = Metabolism of ritonavir by P450 aluC09 and mutants; conditions: percent of substrate being converted; 0.125 mg/ml, 27° C., 16-20 hours; [CYP] per enzyme as in Table 8
Summary of the method: as §1

[13] = Metabolism of valsartan by P450 aluC09 and mutants; conditions: percent of substrate being converted; 0.125 mg/ml, 27° C., 16-20 hours; [CYP] per enzyme as in Table 8
Summary of the method: as §1

[14] = Hydroxylation of aceclofenac catalysed by cytochrome P450 aluC09 and mutants; conditions: for Aceclofenac (Substrate) (1.80 mins) / Dihydroxy-Aceclofenac (1.42 mins) / Hydroxy-Aceclofenac (1) (1.64 min) / Hydroxy-Aceclofenac (2) (1.60 min): % by UV peak area at 275 nm, 0.125 mg/ml substrate, 27° C., 16-20 hours; for Hydroxylated Ratio 2:1: aceclofenac, ratio of UV peak areas at 275 nm
Summary of the method: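 Conversion was assessed by UPLC-MS (UV and MS detection) after acetonitrile extraction of reactions run 16-20 h at 27° C, shaking. Reactions contained substrate at 0.125 mg/ml, P450 mutant plus ferredoxin and reductase partners, 1 mM NADP with glucose-6-phosphate regeneration, in phosphate buffer pH 7.4.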

[15] = Metabolism of buparvaquone by P450 aluC09 and mutants; conditions: percent of substrate being converted; 0.125 mg/ml, 27° C., 16-20 hours; [CYP] per enzyme as in Table 8
Description: Lyophilised material of mutants of CYP450aluC09, ferredoxinaluF03 and ferredoxin reductaseSCF15A was made as described in examples 3 and 4 and suspended in water (0.5 mL per vial) and biocatalysis was performed at 27° C. in the following conditions: 50 mM potassium phosphate pH 7.4, 5 mM MgCl2, 0.125 mg/ml substrate compound such as diclofenac (Sigma-Aldrich, UK), Aceclofenac (Tokyo Chemical Industry UK Ltd, UK), Indomethacin (Sigma-Aldrich, UK), Flufenamic acid (Sigma-Aldrich, UK), Napropamide (Sigma-Aldrich, UK), celecoxib (LC Laboratories, USA), valsartan (Tokyo Chemical Industry UK Ltd, UK), ruxolitinib (LC Laboratories, USA), 4-pyrrolidylacetophenone (Sigma-Aldrich, UK), tofacitinib (LC Laboratories, USA), bosentan (CarboSynth Ltd, UK), buparvaquone (MedChemtronica, Sweden), BIRB796 (Stratech Scientific Limited, UK), epothilone B (LC Laboratories, USA), ritonavir (Tokyo Chemical Industry UK Ltd, UK) or tivantinib (MedChemtronica, Sweden), P450AluC09 (concentration as in Table 8), 5 mM G6P, 1 mM NADP, 2 UN/ml G6PDH in a final volume of 100 μL. After 16-20 hours at 200 rpm (5 cm orbital shaker, Kuhner AG, Switzerland), reactions were extracted with an equal volume of acetonitrile, centrifuged to remove precipitated proteins and conversion assessed by UPLC-MS analysis.
However, of particular note when considering P450 concentration are the results for mutants M12, M20 and M34, as well as the deleterious impact on the range of substrate utility in mutants M39 and M40.

[16] = Metabolism of bosentan by P450 aluC09 and mutants; conditions: percent of substrate being converted; 0.125 mg/ml, 27° C., 16-20 hours; [CYP] per enzyme as in Table 8
Summary of the method: as §1

| Molecule | % conversions (avg) 4-pyrrolidylacetophenone [1] [%] | 4′,5-dihydroxy-diclofenac 1.38 mins [2] [%] | 4′-hydroxy-diclofenac (1) 1.62 mins [2] [%] | 5-hydroxy-diclofenac (2) 1.58 mins [2] [%] | Diclofenac (Substrate) 1.81 mins [2] [%] | Hydroxylated Ratio hydroxy 1:hydroxy 2 [2] | Desethyl Napropamide (1.62 min) [3] [%] | Desethyl-hydroxy-Napropamide (1.41 min) [3] [%] | Hydroxy-Napropamide (1) (1.53 min) [3] [%] | Hydroxy-Napropamide (2), (1.52 min) [3] [%] | M-2Da (unidentified) (1.89 min) [3] [%] | Napropamide (substrate) [3] [%] | Hydroxylated Ratio 2:1 [3] | % conversions (avg) Tofacitinib [4] [%] | % conversions (avg) Epothilone B [5] [%] | % conversions (avg) Tivantinib [6] [%] | % conversions (avg) BIRB796 [7] [%] | Indomethacin (1.74 mins) [8] [%] | O-demethyl-Indomethacin (1.52 mins) [8] [%] | Flufenamic Acid (Substrate) 1.93 mins [9] [%] | further results |
| --- | --- | --- | --- | --- | --- | --- | --- | --- | --- | --- | --- | --- | --- | --- | --- | --- | --- | --- | --- | --- | --- |
| aluC09M38: cytochrome P450 aluC09 mutant T291H; amino acid sequence SEQ ID NO: 64 (protein, listed as Amycolatopsis lurida) MTDVEETTATLPLARKCPFSPPPEYERLRRESPVSRVGLPSGQTAWALTRLEDIREMLSSPHFSSDRQSPSFPLMVARQIRREDKPFRPSLIAMDPPEHSRARRDVVGEFTVKRMKALQPRIQQIVDEHLDALLAGPKPADLVQALSLPVPSLVICELLGVPYSDHEFFQSCSSRMLSREVTAEERMTAFEQLENYLDELVTKKEANATEDDLLGRQILKQRETGEADHGELVGLAFLLLIAGHETTANMISLGTVTLLENPDQLAKIKADPGKTLAAIEELLRVFTIAEHATSRFATADVEIGGTLIRAGEGVVGLSNAGNHDPDGFENPDTFDIERGARHHVAFGFGVHQCLGQNLARLELQIVFDTLFRRVPGLRIAVPVDELPFKHDSTIYGLHALPVTW | 2.9 | 2.9 | 44.5 | 18.9 | 35.6 | 2.4 | 45.6 | 3.8 | 1.0 | 3.9 | 6.2 | 41.1 | 3.9 | 0.7 | 13.4 | 27.6 | 13.6 | 83.8 | 16.2 | 95.3 | Hydroxy-Flufenamic Acid (1) 1.69 mins [9]: 2.9%; Hydroxy-Flufenamic Acid (2) 1.65 mins [9]: 1.8%; Hydroxylated Ratio 1:2 [9]: 1.6; % conversions (avg) Ruxolitinib [10]: 30.8%; % conversions (avg) Celecoxib [11]: 2.3%; % conversions (avg) Ritonavir [12]: 64.2%; % conversions (avg) Valsartan [13]: 61.9%; Aceclofenac (Substrate) (1.80 mins) [14]: 29.8%; Dihydroxy-Aceclofenac (1.42 mins) [14]: 28.9%; Hydroxy-Aceclofenac (1) (1.64 min) [14]: 11.9%; Hydroxy-Aceclofenac (2) (1.60 min) [14]: 29.4%; Hydroxylated Ratio 2:1 [14]: 2.5; % conversions (avg) Buparvaquone [15]: 4.1%; % conversions (avg) Bosentan [16]: 98.7% |
| aluC09: wild-type cytochrome P450 aluC09 from Amycolatopsis lurida NRRL-2430; amino acid sequence SEQ ID NO: 2 (protein, listed as Amycolatopsis lurida) MTDVEETTATLPLARKCPFSPPPEYERLRRESPVSRVGLPSGQTAWALTRLEDIREMLSSPHFSSDRQSPSFPLMVARQIRREDKPFRPSLIAMDPPEHSRARRDVVGEFTVKRMKALQPRIQQIVDEHLDALLAGPKPADLVQALSLPVPSLVICELLGVPYSDHEFFQSCSSRMLSREVTAEERMTAFEQLENYLDELVTKKEANATEDDLLGRQILKQRETGEADHGELVGLAFLLLIAGHETTANMISLGTVTLLENPDQLAKIKADPGKTLAAIEELLRVFTIAETATSRFATADVEIGGTLIRAGEGVVGLSNAGNHDPDGFENPDTFDIERGARHHVAFGFGVHQCLGQNLARLELQIVFDTLFRRVPGLRIAVPVDELPFKHDSTIYGLHALPVTW | 5.6 | 3.1 | 27.0 | 26.2 | 45.2 | 1.0 | 44.8 | 5.4 | 2.0 | 4.0 | 6.6 | 39.3 | 2.1 | 1.4 | 18.4 | 41.4 | 13.4 | 83.6 | 16.4 | 93.1 | Hydroxy-Flufenamic Acid (1) 1.69 mins [9]: 4.5%; Hydroxy-Flufenamic Acid (2) 1.65 mins [9]: 2.4%; Hydroxylated Ratio 1:2 [9]: 1.9; % conversions (avg) Ruxolitinib [10]: 46.6%; % conversions (avg) Celecoxib [11]: 2.5%; % conversions (avg) Ritonavir [12]: 59.6%; % conversions (avg) Valsartan [13]: 28.9%; Aceclofenac (Substrate) (1.80 mins) [14]: 18.0%; Dihydroxy-Aceclofenac (1.42 mins) [14]: 36.5%; Hydroxy-Aceclofenac (1) (1.64 min) [14]: 5.7%; Hydroxy-Aceclofenac (2) (1.60 min) [14]: 39.8%; Hydroxylated Ratio 2:1 [14]: 7.0; % conversions (avg) Buparvaquone [15]: 14%; % conversions (avg) Bosentan [16]: 98.8% |
